Like-named read-outs stand apart in the source and are kept apart here.

One test has as its target PD-L1 (human) (UniProt Q9NZQ7). As to the kind of experiment: flow cytometry, CHO cells stably expressing PD-L1. In general terms: Flow cytometry measures light scatter and fluorescence of single cells or particles in a stream.
In a further test the target is human CTLA-4 (human) (UniProt P16410). Nature of the test: flow cytometry, CHO cells stably expressing CTLA4.
The target in test [1] is CD28 (human) (UniProt P10747). As to the kind of experiment: flow cytometry, Jurkat cells (CD28).
The target of test [2] is CD28 (human) (UniProt P10747). As to the kind of experiment: flow cytometry, Jurkat cells (CD28). This is another data set of the same source.

Chain of human CTLA-4 (human) (P16410 36-223): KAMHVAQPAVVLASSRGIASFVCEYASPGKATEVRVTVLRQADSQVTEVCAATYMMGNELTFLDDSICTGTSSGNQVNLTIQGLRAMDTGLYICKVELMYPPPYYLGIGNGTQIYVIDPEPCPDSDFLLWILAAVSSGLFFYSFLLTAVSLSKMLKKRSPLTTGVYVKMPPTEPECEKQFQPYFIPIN

For “variant CD80 IgV-Fc H18Y/E35D/M47L/A71G (Fc fusion)”, the MFI at 33.3 nM with PD-L1 (human) is 11900 MFI; in the test with human CTLA-4 (human), 22400 MFI.
“variant CD80 IgV-Fc A26E/E35D/V68M/A71G (Fc fusion)”: the MFI at 33.3 nM with PD-L1 (human) was determined as 12600 MFI; in the test with CD28 (human) [1], 135 MFI.
In the test with PD-L1 (human), “variant CD80 IgV-Fc H18Y/A26E/E35D/D90G (Fc fusion)” registered an MFI at 33.3 nM of 10000 MFI.
Regarding “variant CD80 IgV-Fc A26E/E35D/M47L/V68M/A71G (Fc fusion)”, the Fold change to WT CD80 came out at 638 fold with PD-L1 (human) and 18.1 fold with human CTLA-4 (human). The MFI at 33.3 nM with PD-L1 (human) was found to be 27800 MFI; with CD28 (human) [1] it was 417 MFI; with human CTLA-4 (human), 24600 MFI.
For the substance “variant CD80 IgV-Fc A26E/E35D/M47L/A71G/D90G (Fc fusion)”, the MFI at 33.3 nM with PD-L1 (human) came out at 14600 MFI; with CD28 (human) [1], 1270 MFI; with human CTLA-4 (human), 22100 MFI.
With “variant CD80 IgV-Fc E35D/M47L/V68M/A71G (Fc fusion)”, the results for the Fold change to WT CD80 with PD-L1 (human) and in the test with human CTLA-4 (human) were 639 fold and 18.1 fold, respectively. In addition, the MFI at 33.3 nM with PD-L1 (human) turned out to be 27900 MFI; with CD28 (human) [1], 806 MFI; with human CTLA-4 (human) it was 24700 MFI.
With “variant CD80 IgV-Fc H18Y/A26E/A71G/D90G (Fc fusion)”, the MFI at 33.3 nM was found to be 2000 MFI with CD28 (human) [1] and 19900 MFI in the test with human CTLA-4 (human).
“variant CD80 IgV-Fc H18Y/A26E/E35D/M47L/A71G/D90G (Fc fusion)” returned an MFI at 33.3 nM in the test with PD-L1 (human) of 16900 MFI.
Consider “variant CD80 IgV-Fc H18Y/E35D/V68M/A71G/D90G (Fc fusion)”, for which the MFI at 33.3 nM with PD-L1 (human) turned out to be 30100 MFI; with CD28 (human) [1] it was 2720 MFI; in the test with human CTLA-4 (human), 24300 MFI.
Turning to “variant CD80 IgV-Fc H18Y/M47L/A71G/D90G (Fc fusion)”, the MFI at 33.3 nM was determined as 10800 MFI with PD-L1 (human), 1600 MFI with CD28 (human) [1] and 18200 MFI in the test with human CTLA-4 (human).
Regarding “variant CD80 IgV-Fc H18Y/M47L/V68M/A71G (Fc fusion)”, the MFI at 33.3 nM in the test with PD-L1 (human) is 28500 MFI; in the test with CD28 (human) [1], 1190 MFI.
As to “variant CD80 IgV-Fc E35D/V68M/A71G/D90G (Fc fusion)”, the figures for the MFI at 33.3 nM with PD-L1 (human), in the test with CD28 (human) [1] and with human CTLA-4 (human) were 28000 MFI, 2840 MFI and 23300 MFI, respectively.
For “variant CD80 IgV-Fc A26E/E35D/M47L/V68M/D90G (Fc fusion)”, the values for the MFI at 33.3 nM in the test with PD-L1 (human) and with human CTLA-4 (human) were 25000 MFI and 26700 MFI, respectively.
As to “CD80 IgV-Fc A26E/Q27R/E35D/M47L/N48Y/L85Q (Fc fusion)”, the MFI at 33.3 nM with CD28 (human) [2] was found to be 78 MFI.
Turning to “variant CD80 IgV-Fc H18Y/E35D/M47L/A71G/D90G (Fc fusion)”, the Fold change to WT CD80 in the test with PD-L1 (human) was found to be 306 fold; with human CTLA-4 (human), 16.9 fold. Also, the MFI at 33.3 nM in the test with PD-L1 (human) is 13300 MFI; in the test with CD28 (human) [1], 1270 MFI; with human CTLA-4 (human), 23000 MFI.
Take CD80 ECD-Fc (Fc fusion): the MFI at 33.3 nM with PD-L1 (human) amounted to 6380 MFI; with CD28 (human) [1] it was 42.3 MFI.
“variant CD80 IgV-Fc A26E/M47L/V68M/A71G (Fc fusion)”: the MFI at 33.3 nM is 1670 MFI with PD-L1 (human), 98.7 MFI with CD28 (human) [1] and 3230 MFI with human CTLA-4 (human).
Regarding “variant CD80 IgV-Fc H18Y/A26E/M47L/V68M/A71G/D90G (Fc fusion)”, the Fold change to WT CD80 with PD-L1 (human) is 727 fold; with CD28 (human) [1] it was 58.2 fold. Besides, the figures for the MFI at 33.3 nM with PD-L1 (human), with CD28 (human) [1] and with human CTLA-4 (human) were 31700 MFI, 2560 MFI and 121 MFI, respectively.
“variant CD80 IgV-Fc H18Y/A26E/E35D/V68M (Fc fusion)”: the MFI at 33.3 nM with PD-L1 (human) was determined as 17900 MFI; with CD28 (human) [1] it was 372 MFI; with human CTLA-4 (human) it was 20900 MFI.
As to “variant CD80 IgV-Fc H18Y/E35D/M47L/V68M/D90G (Fc fusion)”, the values for the MFI at 33.3 nM with PD-L1 (human) and in the test with CD28 (human) [1] were 27400 MFI and 3390 MFI, respectively.
For the substance “variant CD80 IgV-Fc H18Y/M47L/V68M/A71G/D90G (Fc fusion)”, the values for the MFI at 33.3 nM with PD-L1 (human) and with human CTLA-4 (human) were 29500 MFI and 22200 MFI, respectively.

Source of the values: US20220177587A1, “METHODS AND USES OF VARIANT CD80 FUSION PROTEINS AND RELATED CONSTRUCTS” (Alpine Immune Sciences, Inc., priority 2018, published 2022).
